Test results: patent publication US20220380464A1 (Genmab, published 2022)

Key:
[1] = target: T1, human CD3 on human T cells (human, UniProt P07766 23-207); test: flow cytometry on isolated human T cells, PE anti-human IgG detection
T1 construct: Natural CD3/TCR complex on T cells isolated from human donor buffy coats; The other chains of the complex (CD3γ, CD3δ, CD3ζ, polyclonal TCR) are also present on the cells
Protocol: T cells were Isolated from a buffy coat fraction of anti-coagulated human donor blood samples and resuspended in PBS/0.1% BSA/0.02% azide at 1.8×10E6 cells/mL. 50 μL of T cell suspension and 50 μL of the antibody dilutions were combined in a 96 well plate on ice, Incubated for 30 min at 4° C. and washed twice with PBS/0.1% BSA/0.02% azide. […] The cells were resuspended in 120 μL PBS/0.1% BSA/0.02% azide and PE geometric Mean Fluorescence Intensity was measured. Binding curves were analyzed using non-linear regression (sigmoidal dose-response with variable slope) using GraphPad Prism V5.04 software (GraphPad Software, San Diego, Calif., USA) and apparent affinity (KD) was derived from the concentration at half-maximal binding.

[2] = target: T2, CD3ε27-GSKa (human); test: BLI (Octet HTX), UniTE antibody on anti-human Fc sensors, CD3ε27-GSKa in solution, 1:1 fit
T2 construct: also called Mature CD3ε27-GSKa
T2 sequence (chain, as listed by the source limits assumed): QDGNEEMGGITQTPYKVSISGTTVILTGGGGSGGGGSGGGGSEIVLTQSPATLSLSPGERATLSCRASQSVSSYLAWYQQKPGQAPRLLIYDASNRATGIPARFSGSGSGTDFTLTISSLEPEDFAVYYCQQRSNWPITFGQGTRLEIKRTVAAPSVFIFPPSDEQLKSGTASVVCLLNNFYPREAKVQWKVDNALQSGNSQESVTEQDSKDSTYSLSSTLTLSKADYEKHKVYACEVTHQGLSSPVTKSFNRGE
Protocol: (§1) Experiments were carried out while shaking at 1000 rpm and at 30° C.

[3] = target: T2, CD3ε27-GSKa; test: BLI (Octet), summary table repeating Table 4
Protocol: as §1

[4] = target: T2, CD3ε27-GSKa; test: BLI (Octet HTX), IgG on anti-human Fc sensors, CD3ε27-GSKa 1000-1.4 nM in solution, 1:1 fit, average
Protocol: as §1
Data was analyzed with ForteBio Data Analysis Software v8.1, using the 1:1 model and a global full fit with 1000 s association time and 100 s dissociation time. […] Data traces with a response <0.05 nm were excluded from analysis.

T1 sequence (P07766 23-207 limits assumed): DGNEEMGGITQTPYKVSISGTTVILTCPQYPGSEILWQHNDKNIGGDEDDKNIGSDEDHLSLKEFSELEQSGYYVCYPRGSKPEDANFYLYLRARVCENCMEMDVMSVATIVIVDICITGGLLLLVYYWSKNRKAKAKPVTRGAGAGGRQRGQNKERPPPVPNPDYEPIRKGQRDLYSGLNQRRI

| Binder | Tcell binding average at 5000ng/ml (Geometric MFI) [1] | Ka [2] | Kd [2] | Kd [3] | Kd [4] | pKD [4] |
| --- | --- | --- | --- | --- | --- | --- |
| UniTE-huCD3-H1L1-LT41K (antibody, V domains shown, also called UniTE-huCD3-H1L1-LT41K (WT); UniTE-huCD3-H1L1-T41K) VH: EVKLVESGGGLVQPGGSLRLSCAASGFTFNTYAMNWVRQAPGKGLEWVARIRSKYNNYATYYADSVKDRFTISRDDSKSSLYLQMNNLKTEDTAMYYCVRHGNFGNSYVSWFAYWGQGTLVTVSS VL: not shown | 13200 Geometric MFI | 3e+07 M⁻¹ | 34 nM | 34 nM |  |  |
| IgG1-huCD3-Y114V-FEAL (antibody, V domains shown) VH: EVKLVESGGGLVQPGGSLRLSCAASGFTFNTYAMNWVRQAPGKGLEWVARIRSKYNNYATYYADSVKDRFTISRDDSKSSLYLQMNNLKTEDTAMYYCVRHGNFGNSYVSWFAVWGQGTLVTVSS VL: not shown |  |  |  |  | 29 nM | 7.5 |
| IgG1-huCD3-T31P-FEAL (antibody, V domains shown) VH: EVKLVESGGGLVQPGGSLRLSCAASGFTFNPYAMNWVRQAPGKGLEWVARIRSKYNNYATYYADSVKDRFTISRDDSKSSLYLQMNNLKTEDTAMYYCVRHGNFGNSYVSWFAYWGQGTLVTVSS VL: not shown |  |  |  |  | 42 nM | 7.4 |
| IgG1-huCD3-S110A-FEAL (antibody, V domains shown) VH: EVKLVESGGGLVQPGGSLRLSCAASGFTFNTYAMNWVRQAPGKGLEWVARIRSKYNNYATYYADSVKDRFTISRDDSKSSLYLQMNNLKTEDTAMYYCVRHGNFGNSYVAWFAYWGQGTLVTVSS VL: not shown |  |  |  |  | 72 nM | 7.1 |
| IgG1-huCD3-H101K-FEAL (antibody, V domains shown) VH: EVKLVESGGGLVQPGGSLRLSCAASGFTFNTYAMNWVRQAPGKGLEWVARIRSKYNNYATYYADSVKDRFTISRDDSKSSLYLQMNNLKTEDTAMYYCVRKGNFGNSYVSWFAYWGQGTLVTVSS VL: not shown |  |  |  |  | 120 nM | 6.9 |
| IgG1-huCD3-S110G-FEAL (antibody, V domains shown) VH: EVKLVESGGGLVQPGGSLRLSCAASGFTFNTYAMNWVRQAPGKGLEWVARIRSKYNNYATYYADSVKDRFTISRDDSKSSLYLQMNNLKTEDTAMYYCVRHGNFGNSYVGWFAYWGQGTLVTVSS VL: not shown |  |  |  |  | 153 nM | 6.8 |
| IgG1-huCD3-H101L-FEAL (antibody, V domains shown) VH: EVKLVESGGGLVQPGGSLRLSCAASGFTFNTYAMNWVRQAPGKGLEWVARIRSKYNNYATYYADSVKDRFTISRDDSKSSLYLQMNNLKTEDTAMYYCVRLGNFGNSYVSWFAYWGQGTLVTVSS VL: not shown |  |  |  |  | 107 nM | 7 |
| UniTE-huCD3-H1L1-G105P-LT41K (antibody, V domains shown, Monovalent UniBody-TE format) VH: EVKLVESGGGLVQPGGSLRLSCAASGFTFNTYAMNWVRQAPGKGLEWVARIRSKYNNYATYYADSVKDRFTISRDDSKSSLYLQMNNLKTEDTAMYYCVRHGNFPNSYVSWFAYWGQGTLVTVSS VL: not shown | 10500 Geometric MFI | 2.8e+07 M⁻¹ | 35 nM | 35 nM |  |  |
| UniTE-huCD3-H1L1-H101G-LT41K (antibody, V domains shown, Monovalent UniBody-TE format) VH: EVKLVESGGGLVQPGGSLRLSCAASGFTFNTYAMNWVRQAPGKGLEWVARIRSKYNNYATYYADSVKDRFTISRDDSKSSLYLQMNNLKTEDTAMYYCVRGGNFGNSYVSWFAYWGQGTLVTVSS VL: not shown | 492 Geometric MFI | 1e+06 M⁻¹ | 970 nM | 970 nM |  |  |
| IgG1-huCD3-Y114R-FEAL (antibody, V domains shown) VH: EVKLVESGGGLVQPGGSLRLSCAASGFTFNTYAMNWVRQAPGKGLEWVARIRSKYNNYATYYADSVKDRFTISRDDSKSSLYLQMNNLKTEDTAMYYCVRHGNFGNSYVSWFARWGQGTLVTVSS VL: not shown |  |  |  |  | 46 nM | 7.3 |
| UniTE-huCD3-H1L1-Y32A-LT41K (antibody, V domains shown, Monovalent UniBody-TE format) VH: EVKLVESGGGLVQPGGSLRLSCAASGFTFNTAAMNWVRQAPGKGLEWVARIRSKYNNYATYYADSVKDRFTISRDDSKSSLYLQMNNLKTEDTAMYYCVRHGNFGNSYVSWFAYWGQGTLVTVSS VL: not shown | 719 Geometric MFI |  |  |  |  |  |
| UniTE-huCD3-H1L1-S110G-LT41K (antibody, V domains shown, Monovalent UniBody-TE format) VH: EVKLVESGGGLVQPGGSLRLSCAASGFTFNTYAMNWVRQAPGKGLEWVARIRSKYNNYATYYADSVKDRFTISRDDSKSSLYLQMNNLKTEDTAMYYCVRHGNFGNSYVGWFAYWGQGTLVTVSS VL: not shown | 949 Geometric MFI | 1.6e+07 M⁻¹ | 61 nM | 61 nM |  |  |
| IgG1-huCD3-Y114M-FEAL (antibody, V domains shown) VH: EVKLVESGGGLVQPGGSLRLSCAASGFTFNTYAMNWVRQAPGKGLEWVARIRSKYNNYATYYADSVKDRFTISRDDSKSSLYLQMNNLKTEDTAMYYCVRHGNFGNSYVSWFAMWGQGTLVTVSS VL: not shown |  |  |  |  | 42 nM | 7.4 |
| IgG1-huCD3-T31M-FEAL (antibody, V domains shown) VH: EVKLVESGGGLVQPGGSLRLSCAASGFTFNMYAMNWVRQAPGKGLEWVARIRSKYNNYATYYADSVKDRFTISRDDSKSSLYLQMNNLKTEDTAMYYCVRHGNFGNSYVSWFAYWGQGTLVTVSS VL: not shown |  |  |  |  | 99 nM | 7 |
| IgG1-huCD3-N57E-FEAL (antibody, V domains shown) VH: EVKLVESGGGLVQPGGSLRLSCAASGFTFNTYAMNWVRQAPGKGLEWVARIRSKYNEYATYYADSVKDRFTISRDDSKSSLYLQMNNLKTEDTAMYYCVRHGNFGNSYVSWFAYWGQGTLVTVSS VL: not shown |  |  |  |  | 91 nM | 7 |
| UniTE-huCD3-H1L1-H101N-LT41K (antibody, V domains shown, Monovalent UniBody-TE format) VH: EVKLVESGGGLVQPGGSLRLSCAASGFTFNTYAMNWVRQAPGKGLEWVARIRSKYNNYATYYADSVKDRFTISRDDSKSSLYLQMNNLKTEDTAMYYCVRNGNFGNSYVSWFAYWGQGTLVTVSS VL: not shown | 848 Geometric MFI | 5.1e+06 M⁻¹ | 200 nM | 200 nM |  |  |
| IgG1-huCD3-Y32A-FEAL (antibody, V domains shown) VH: EVKLVESGGGLVQPGGSLRLSCAASGFTFNTAAMNWVRQAPGKGLEWVARIRSKYNNYATYYADSVKDRFTISRDDSKSSLYLQMNNLKTEDTAMYYCVRHGNFGNSYVSWFAYWGQGTLVTVSS VL: not shown |  |  |  |  | 105 nM | 7 |
| UniTE-huCD3-H1L1-Y114R-LT41K (antibody, V domains shown, Monovalent UniBody-TE format) VH: EVKLVESGGGLVQPGGSLRLSCAASGFTFNTYAMNWVRQAPGKGLEWVARIRSKYNNYATYYADSVKDRFTISRDDSKSSLYLQMNNLKTEDTAMYYCVRHGNFGNSYVSWFARWGQGTLVTVSS VL: not shown | 6200 Geometric MFI |  |  |  |  |  |
| UniTE-huCD3-H1L1-H101I-LT41K (antibody, V domains shown, Monovalent UniBody-TE format) VH: EVKLVESGGGLVQPGGSLRLSCAASGFTFNTYAMNWVRQAPGKGLEWVARIRSKYNNYATYYADSVKDRFTISRDDSKSSLYLQMNNLKTEDTAMYYCVRIGNFGNSYVSWFAYWGQGTLVTVSS VL: not shown |  | 4.6e+06 M⁻¹ | 220 nM | 220 nM |  |  |
| IgG1-huCD3-G105P-FEAL (antibody, V domains shown) VH: EVKLVESGGGLVQPGGSLRLSCAASGFTFNTYAMNWVRQAPGKGLEWVARIRSKYNNYATYYADSVKDRFTISRDDSKSSLYLQMNNLKTEDTAMYYCVRHGNFPNSYVSWFAYWGQGTLVTVSS VL: not shown |  |  |  |  | 5 nM | 8.3 |
| IgG1-huCD3-H101N-FEAL (antibody, V domains shown) VH: EVKLVESGGGLVQPGGSLRLSCAASGFTFNTYAMNWVRQAPGKGLEWVARIRSKYNNYATYYADSVKDRFTISRDDSKSSLYLQMNNLKTEDTAMYYCVRNGNFGNSYVSWFAYWGQGTLVTVSS VL: not shown |  |  |  |  | 45 nM | 7.3 |
| UniTE-huCD3-H1L1-N57E-LT41K (antibody, V domains shown, Monovalent UniBody-TE format) VH: EVKLVESGGGLVQPGGSLRLSCAASGFTFNTYAMNWVRQAPGKGLEWVARIRSKYNEYATYYADSVKDRFTISRDDSKSSLYLQMNNLKTEDTAMYYCVRHGNFGNSYVSWFAYWGQGTLVTVSS VL: not shown | 8490 Geometric MFI | 4.1e+07 M⁻¹ | 24 nM | 24 nM |  |  |
| UniTE-huCD3-H1L1-S110A-LT41K (antibody, V domains shown, Monovalent UniBody-TE format) VH: EVKLVESGGGLVQPGGSLRLSCAASGFTFNTYAMNWVRQAPGKGLEWVARIRSKYNNYATYYADSVKDRFTISRDDSKSSLYLQMNNLKTEDTAMYYCVRHGNFGNSYVAWFAYWGQGTLVTVSS VL: not shown | 1660 Geometric MFI | 3.1e+06 M⁻¹ | 320 nM | 320 nM |  |  |
| UniTE-huCD3-H1L1-H101K-LT41K (antibody, V domains shown, Monovalent UniBody-TE format) VH: EVKLVESGGGLVQPGGSLRLSCAASGFTFNTYAMNWVRQAPGKGLEWVARIRSKYNNYATYYADSVKDRFTISRDDSKSSLYLQMNNLKTEDTAMYYCVRKGNFGNSYVSWFAYWGQGTLVTVSS VL: not shown | 1320 Geometric MFI |  |  |  |  |  |
| UniTE-huCD3-H1L1-T31A-LT41K (antibody, V domains shown, Monovalent UniBody-TE format) VH: EVKLVESGGGLVQPGGSLRLSCAASGFTFNAYAMNWVRQAPGKGLEWVARIRSKYNNYATYYADSVKDRFTISRDDSKSSLYLQMNNLKTEDTAMYYCVRHGNFGNSYVSWFAYWGQGTLVTVSS VL: not shown | 10200 Geometric MFI |  |  |  |  |  |
